Test results published in the DeepSol protein solubility set.

Assay: soluble on expression in E. coli; label from the status in PepcDB or PDB records

Sequence	soluble on expression in E. coli
MRFAVLGSGSQGNGTLIVSADTCVLVDCGFSLRETERRLLRLGVDPAQLSAILVTHEHADHVHGVGLLSRRYNLPVYLSQGTLRGMRKPVEVAGFVRGGESLQIGALRIDVIAVAHDAQEPTQFVFSDGQRRFGLLTDLGSYCAGVLDGYRGLDALMIEANHCRDRLARGYYPYFLKQRVGGDLGHLNNHQAASLVAELGWQDLQHLVLAHLSSKNNLPQLARQCFVDTLGCDPDWLQLADQDSGLDWRHIALEHHHHHH	not soluble
MRFRPFTEEDLDRLNRLAGKRPVSLGALRFFARTGHSFLAEEGEEPMGFALAQAVWQGEATTVLVTRMEGRSVEALRGLLRAVVKSAYDAGVYEVALHLDPERKELEEALKAEGFALGPLVLAVRVLGSRGARGETRGVLE	soluble
MRFVDFFNALLEGKVIGQKCGDCGSYTCPPKATCDNCGSRNLEAVELSGKGVIRTFTTTYVAPSGYTNEAPYTVAMVELDEGPWIVGRIDLPNEEIEKFGQDLIGARVSVYGKEFPTEPFYPDKKRRVVPMFRLEGLEHHHHHH	soluble
MRFYNREKELARLMEIATLSEESAHLAVITGRRRVGKTELIRKFAEGRDDFLYFFVSKKKPRVLLDEFRDLLAARVPLLASASFGSFDDFFRALFEITKERPLFIVFDEFQNFQQVDPAVFSTLQDLWDRNKGTIKGTIVCIGSVQTLMREIFEGAKEPLFGRVTARLYVEPLIPDVVATILADHQVDAVRHLPFFFTLFGGIPKYYFLLDRYRLFGKTPAEIIRKFFCETDALLQNEGKDLLVEEFGKNYHLYFSILQVIAGGENQMARIADKSGINVNSISKYLDELTSYYQVIERRLPVTATRQEQKTGRYYLKDPLLRFWFRYIYRNQSLIEIGDEEGLLGKIQADLSTFMGWSFEELIRAMLLKRNDGTVVPFGFTRIGGFWTKRGDVEIDIVALNEEDGAIFFGECKLSGSRFSVADARRLKEKAKAVPWRTGDRREHFVLFCMDDLESDAEQALAAEGVGVVRLRQLLSVPLEHHHHHH	not soluble
MRGHLIDGDGRCIHYHGPFDVVGNKCATCNEWWACHRCHEEIANHPFGKMLIDAPSSLQCGHCGELMAYGVQKCPRCGHNFNPGCSLHTPLYYEMPSLEHHHHHH	not soluble
MRGKNTGKQRRSIKKQQTVAELKHLFDAPGRGSVMPRQVLWGDLCLTAFPHELNSESTAPMHRYILLSIIRIPLPLTLESQRSLTLVKRCFRRSSVLSSTLYSRLGSTTF	not soluble
MRGSHHHHHHGSACELGTMPHIDNDVKLDFKDVLLRPKRSTLKSRSEVDLTRSFSFRNSKQTYSGVPIIAANMDTVGTFEMAKVLCKFSLFTAVHKHYSLVQWQEFAGQNPDCLEHLAASSGTGSSDFEQLEQILEAIPQVKYICLDVANGYSEHFVEFVKDVRKRFPQHTIMAGNVVTGEMVEELILSGADIIKVGIGPGSVCTTRKKTGVGYPQLSAVMECADAAHGLKGHIISDGGCSCPGDVAKAFGAGADFVMLGGMLAGHSESGGELIERDGKKYKLFYGMSSEMAMKKYAGGVAEYRASEGKTVEVPFKGDVEHTIRDILGGIRSTCTYVGAAKLKELSRRTTFIRVTQQVNPIFSEAC	soluble
MRGSHHHHHHGSDLGKKLLEAARAGQDDEVRILMANGADVNAEDTYGDTPLHLAARVGHLEIVEVLLKNGADVNALDFSGSTPLHLAAKRGHLEIVEVLLKYGADVNADDTIGSTPLHLAADTGHLEIVEVLLKYGADVNAQDKFGKTAFDISIDNGNEDLAEILQ	soluble
MRGSHHHHHHGSMQYALLFPGQGSQCIGMGKSFYEGHTLAKELFERASNALKVDMKKTLFEENELLKESAYTQPAIYLVSYIAYQLLNKQANGGLKPVFALGHSLGEVSAVSLSGALDFEKALKLTHQRGKMMQEACANKDASMMVVLGVSEESLLSLCQRTKNVWCANFNGGMQVVLAGVKDDLKALEPTLKEMGAKRVVFLEMSVASHCPFLEPMIFKFQELLEKSLKDKFHFEIISNATNEAYHNKAKAVELLSLQLTQPVRYQDCVKSNNDRVDIFFELGCGSVLKGLNKRLSNKPTISVGDNKGLDEAIEFLEEYV	soluble
MRGSHHHHHHMSDEEHTFETADAGSSATYPMQCSALRKNGFVVIKSRPCKIVDMSTSKTGKHGHAKVHLVAIDIFTGKKLEDLSPSTHNMEVPVVKRNEYQLLDIDDGFLSLMNMDGDTKDDVKAPEGELGDSLQTAFDEGKDLMVTIISAMGEEAAISFKEAARTD	soluble
MRGSHHHHHHTDPALRAALKATIYKATVNVADLDRNQFLDASLTLARHPSETQERMMLRLLAWLKYADERLQFTRGLCADDEPEAWLRNDHLGIDLWIELGLPDERRIKKACTQAAEVALFTYNSRAAQIWWQQNQSKCVQFANLSVWYLDDEQLAKVSAFADRTMTLQATIQDGVIWLSDDKNNLEVNLTAWQQPSGLCGR	soluble
MRGSHHHHHHTDPALRAARLFTLSESKYYLMALDAGTGSIRAVIFDLEGNQIAVGQAEWRHLAVPDVPGSMEFDLNKNWQLACECMRQALHNAGIAPEYIAAVSACSMREGIVLYNNEGAPIWACANVDARAAREVSELKELHNNTFENEVYRATGQTLALSAIPRLLWLAHHRSDIYRQASTITMISDWLAYMLSGELAVDPSNAGTTGLLDLTTRDWKPALLDMAGLRADILSPVKETGTLLGVVSSQAAELCGLKAGTPVVVGGGDVQLGCLGLGVVRPAQTAVLGGTFWQQVVNLAAPVTDPEMNVRVNPHVIPGMVQAESISFFTGLTMRWFRDAFCAEEKLIAERLGIDTYTLLEEMASRVPPGSWGVMPIFSDRMRFKTWYHAAPSFINLSIDPDKCNKATLFRALEENAAIVSACNLQQIADFSNIHPSSLVFAGGGSKGKLWSQILADVSGLPVNIPVVKEATALGCAIAAGVGAGIFSSMAETGERLVRWERTHTPDPEKHELYQDSRDKWQAVYQDQLGLVDHGLTTSLWKAPGLGLCGR	soluble
MRGSHHHHHHTDPALRALVSSNVTMQFGSKPLFENISVKFGGGNRYGLIGANGSGKSTFMKILGGDLEPTLGNVSLDPNERIGKLRQDQFAFEEFTVLDTVIMGHKELWEVKQERDRIYALPEMSEEDGYKVADLEVKYGEMDGYSAEARAGELLLGVGIPVEQHYGPMSEVAPGWKLRVLLAQALFADPDILLLDEPTNNLDIDTIRWLEQVLNERDSTMIIISHDRHFLNMVCTHMADLDYGELRVYPGNYDEYMTAATQARERLLADNAKKKAQIAELQSFVSRFSANASKSRQATSRARQIDKIKLEEVKASSRQNPFIRFEQDKKLFRNALEVEGLTKGFDNGPLFKNLNLLLEVGEKLAVLGTNGVGKSTLLKTLVGDLQPDSGTVKWSENARIGYYAQDHEYEFENDLTVFEWMSQWKQEGDDEQAVRSILGRLLFSQDDIKKPAKVLSGGEKGRMLFGKLMMQKPNILIMDEPTNHLDMESIESLNMALELYQGTLIFVSHDREFVSSLATRILEITPERVIDFSGNYEDYLRSKGIEGLCGR	soluble
MRHLRFENLTEEQLKRLAKILTENLKGGEVVILSGNLGAGKTTFVKGMIRAIGLDEKMVKSPTFTLMNVYPGLKTIYHLDLYRLQDTDFLSLDVEDILEDEDGIMVVEWGDLFDGFWPEDSIKVKIEIADESHRNVEILIPEEVNFLVEKIERYRKELQNT	soluble
MRIDTVNVLLEALPYIKEFYGKTFVIKFGGSAMKQENAKKAFIQDIILLKYTGIKPIIVHGGGPAISQMMKDLGIEPVFKNGHRVTDEKTMEIVEMVLVGKINKEIVMNLNLHGGRAVGICGKDSKLIVAEKETKHGDIGYVGKVKKVNPEILHALIENDYIPVIAPVGIGEDGHSYNINADTAAAEIAKSLMAEKLILLTDVDGVLKDGKLISTLTPDEAEELIRDGTVTGGMIPKVECAVSAVRGGVGAVHIINGGLEHAILLEIFSRKGIGTMIKELEG	soluble
MRIEDKLYLNRYRTDEENPHLKIKDESICAEKCSDRPCVSCCPADVYEWTESGMEVKFEGCLECGTCRIVCPFGNIEWNYPRGNYGVLYKFG	soluble
MRIGIVCPYSFDAPGGVQAHVLDLAEKFISQGHHVEVLGPASESTQLPDFVTRGGASLPIPYNGSVARLSFGPSTFIRARDFINRGQFDVLHIHEPNSPSFSMAALKVARGPIVATYHASSNRSLALKFALPFLRGQLEKIRGGIAVSEMARRWQVEMLGGDPILIPNGVETSQFELDKKPLWSGRIPEIVFLGRLDEHRKGLDILLRAVDRLDHEVRVTVIGGGTHPPAPRIDFVGRVSDEEKAEILGRADIYVAPNRGGESFGIVLVEAMAAGCVVVASDLEAFSAVCDAQSSQPSGILFRNGDADDLASTLRNVIENPKFGQELVTSGTQRAKEFDWDNVSKEIMRVYETVCDGTTVTAA	not soluble
MRILNQDNNIAVRNVLLMLTMEEAAELKDDLERLLSKKALNDHSHINDLEYEHELTISLYDENNIEEFDERIKKLIIQDE	not soluble
MRILVTNDDGIYSPGLWALAEAASQFGEVFVAAPDTEQSAAGHAITIAHPVRAYPHPSPLHAPHFPAYRVRGTPADCVALGLHLFGPVDLVLSGVNLGSNLGHEIWHSGTVAAAKQGYLFGLSAAAFSVPLNGEVPDFAGLRPWLLRTLETLLRLERPFLVNVNLPLRPKGFLWTRQSVRAYEGVVIPGEDPMGRPFYWFAPRPLKEAEEGTDRWAVAQGFVSATPLRLDLTDETRLQPTLAHD	soluble
MRISLPVAEAAAAGGRAGKHGKAITFLTPDDTAVYFDLKQVKIVDGHLPTHVFSLNCLRRYARMDSRNMMLHGANLDNSHLDVKVNFLFENFKHFSVFLKLTKSSK	soluble
MRKEAIYHRPADNFAYAYDSETLHLRLRTKKDDIDRVELLHGDPYDWQNGAWQFQMMPMRKTGSDELFDYWFAEVKPPYRRLRYGFVLYSGEEKLVYTEKGFYFEVPTDDTAYYFCFPFLHRVDLFEAPDWVKDTVWYQIFPERFANGNPSISPEGSRPWGSEDPTPTSFFGGDLQGIIDHLDYLVDLGITGIYLTPIFRSPSNHKYDTADYFEVDPHFGDKETLKTLIDRCHEKGIRVMLDAVFNHCGYEFAPFQDVWKNGESSKYKDWFHIHEFPLQTEPRPNYDTFAFVPQMPKLNTANPEVKRYLLDVATYWIREFDIDGWRLDVANEIDHEFWREFRQEVKALKPDVYILGQIWHDAMPWLRGDQFDAVMNYPFTDGVLRFFAKEEISARQFANQMMHVLHSYPNNVNEAAFNLLGSHDTSRILTVCGGDIRKVKLLFLFQLTFTGSPCIYYGDEIGMTGGNDPECRKCMVWDPMQQNKELHQHVKQLIALRKQYRSLRRGEISFLHADDEMNYLIYKKTDGDETVLVIINRSDQKADIPIPLDARGTWLVNLLTGERFAAEAETLCTSLPPYGFVLYAIEHW	soluble
MRKFLSKTHHHTNPLWRVYRLVKFSKVFKNVIIIEFSKFIPSMVLKRHIYKQLLNINIGNQSSIAYKVMLDIFYPELITIGSNSVIGYNVTILTHEALVDEFRYGPVTIGSNTLIGANATILPGITIGDNVKVAAGTVVSKDIPDNGFAYGNPMYIKMIRR	not soluble
MRKLFLLAIVLCVWSVVADAQESERRYIEVTGSSEIEVVPDEIHLLIQIKEYWKEEFVPKSKPEDYKTKVPLEWIEKDLRRVLSRAGISDEAIRVQEIGDYWRQKGKEFLIGKQLDIRFTDFEKINAVIKKIDTKGIESMRIGELKHKDLPNYRKQGKIEALKAAREKASYLVEAMGQKLGEVIRIVEPASSYVSPYSLYQAQSNVSMGTAATEQYRVITLRYEMTARFAIELEHHHHHH	soluble
MRKLKMMLFGASLIMVAGCSSKENALCHPQPKPPAPPAWAMMPPSNSLQLLDETFSVSGTESSETRQHLEHHHHHH	not soluble
